Measured values taken from US12331334B2.

Target: human C3 FRET peptide

Substance	Activity (nM EDANS/min/µL sample), expi293 supernatant on 40 µM human C3 FRET peptide (nM EDANS/min/µL sample)
WT uPA with C122S - HSA (No PP) (enzyme)	0.1
WT uPA with C122S-Fc (No PP) (Fc fusion)	0
